Changes are numbered by the printed parent chain.
T1: human CD300LB on primary human macrophages (human, UniProt A8K4G0 18-201)
T1 sequence: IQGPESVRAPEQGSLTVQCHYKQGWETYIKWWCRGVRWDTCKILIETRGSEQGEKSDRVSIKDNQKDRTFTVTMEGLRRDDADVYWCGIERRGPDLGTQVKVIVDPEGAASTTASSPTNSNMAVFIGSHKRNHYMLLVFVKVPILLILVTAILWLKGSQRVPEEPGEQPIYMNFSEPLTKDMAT

T2: human CD300D-Fc (human)
T2 construct: hIgG1-Fc fusion; the entry is the whole fusion chain
T2 chain: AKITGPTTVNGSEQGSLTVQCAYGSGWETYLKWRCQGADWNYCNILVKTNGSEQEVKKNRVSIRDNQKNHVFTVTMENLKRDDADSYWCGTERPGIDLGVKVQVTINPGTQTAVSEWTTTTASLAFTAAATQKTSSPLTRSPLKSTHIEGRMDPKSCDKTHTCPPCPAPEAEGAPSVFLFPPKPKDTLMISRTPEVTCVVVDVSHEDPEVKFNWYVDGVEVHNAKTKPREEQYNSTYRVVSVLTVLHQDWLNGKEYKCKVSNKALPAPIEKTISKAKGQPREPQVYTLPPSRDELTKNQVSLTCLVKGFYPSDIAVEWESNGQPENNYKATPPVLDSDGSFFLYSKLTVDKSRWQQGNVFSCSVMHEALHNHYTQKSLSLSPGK

T3: human CD300E-Fc (human)
T3 construct: hIgG1-Fc fusion; the entry is the whole fusion chain
T3 chain: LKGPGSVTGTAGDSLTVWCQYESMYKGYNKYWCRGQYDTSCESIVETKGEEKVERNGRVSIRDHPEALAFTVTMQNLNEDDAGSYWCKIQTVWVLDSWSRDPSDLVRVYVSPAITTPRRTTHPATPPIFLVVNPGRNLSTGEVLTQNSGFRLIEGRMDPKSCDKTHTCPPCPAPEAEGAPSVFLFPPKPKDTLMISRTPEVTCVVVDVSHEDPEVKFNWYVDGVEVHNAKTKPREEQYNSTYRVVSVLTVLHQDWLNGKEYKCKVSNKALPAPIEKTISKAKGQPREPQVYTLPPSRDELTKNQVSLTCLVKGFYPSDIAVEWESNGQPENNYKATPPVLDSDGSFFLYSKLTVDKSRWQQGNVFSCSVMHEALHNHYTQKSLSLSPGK

T4: murine CD300D-Fc (mouse)
T4 construct: mouse IgG2a-Fc fusion (R&D Systems); the entry is the whole fusion chain; also called mCD300D; Mouse CD300D-Fc
T4 chain: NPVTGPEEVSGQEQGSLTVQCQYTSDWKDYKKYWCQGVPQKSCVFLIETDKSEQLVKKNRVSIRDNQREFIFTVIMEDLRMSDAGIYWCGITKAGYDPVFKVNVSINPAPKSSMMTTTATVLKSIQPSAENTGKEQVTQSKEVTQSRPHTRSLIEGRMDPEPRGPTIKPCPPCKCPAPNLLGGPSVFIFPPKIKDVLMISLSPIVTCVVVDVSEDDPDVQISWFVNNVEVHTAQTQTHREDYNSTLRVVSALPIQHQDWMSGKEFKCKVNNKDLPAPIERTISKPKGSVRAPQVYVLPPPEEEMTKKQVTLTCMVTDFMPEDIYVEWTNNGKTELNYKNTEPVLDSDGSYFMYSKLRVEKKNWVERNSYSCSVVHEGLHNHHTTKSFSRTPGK

B1: anti-CD300LB antibody CD-07 (antibody, V domains shown)
VH: QVQLVQSGAEVKKPGASVKVSCKASGYTFTNYRMHWVRQAPGQGLEWMGWINPNSGGTIYAQKFQGRVTMTRDTSTSTVYMELSSLRSEDTAVYYCARDLDYWGQGTLVTVSS
VL: DIQMTQSPSSLSASVGDRVTITCQASQDISNYLNWYQQKPGKAPKLLIYGASSLQSGVPSRFSGSGSGTDFTLTISSLQPEDFATYYCQQSYSTPWTFGPGTKVEIK
B2: anti-CD300LB antibody CD-06 (antibody, V domains shown)
VH: QVQLVQSGAEVKKPGASVKVSCKASGYTFTTYAVHWVRQAPGQGLEWMGIVNPNSGGTNYAQKFQGRVTMTRDTSTSTVYMELSSLRSEDTAVYYCARDIVPMNNFYNYYYGMDVWGQGTTVTVSS
VL: B1 VL with Q24R, D28S, N31S, G50A, A51T, S53T, S93R, T94I, W96Y, P100Q
B3: anti-CD300LB antibody CD-05 (antibody, V domains shown)
VH: QVQLVQSGAEVKKPGASVKVSCKASGYTFSRYYINWVRQAPGQGLEWMGWINPNSGGTNYAQKFQGRVTMTRDTSTSTVYMELSSLRSEDTAVYYCTTDQLRFGKTGPYYGMDVWGQGTTVTVSS
VL: B1 VL with Q24R, D28N, S30G, N31T, G50A, T94D, P95T, W96L, P100G
B4: anti-CD300LB antibody CD-03 (antibody, V domains shown)
VH: EVQLQQSGPELVKPGASVKISCKASGYTFTDYYINWVRQSHGKSLECIGDINPNNGGTNYNQKFKGKATLTVDRSSNTAYMEFRSLTFDDSALYYCAAEGAYWGQGTLVTVSA
VL: not shown
B5: anti-CD300LB antibody CD-02 (antibody, V domains shown)
VH: QVQLQQPGAELVRPGSSVKLSCQASGYTFTNYWMHWVRQRPIQGLEWIGNIDPSDSETHYNQKFKDRATLTVDKSSSTAYMQLSSLTSEDSAVYYCARSGVYDDEGGDYWGQGTTLTVSS
VL: ENVLTQSPAIMSASPGEKVTMTCSASSSVSYIHWYQQKSSTSPKLWIYDTSKLASGVPGRFSGSGSGNSYSLTISSMETEDVATYYCFQGSGYPLTFGAGTKLELK
B6: anti-CD300LB antibody CD-01 (antibody, V domains shown)
VH: RVQLQQSGAELVRPGASVTLSCKASGFTFTDFEMHWVKKTPVHGLEWIGAIDPESGNTAYNQKFRGKATLTADKSSSTAYMELRYLTSEDSAVYYCTPLISGADYWGQGTTLTVSS
VL: DVVMTQSPLSLPVSLGDQASISCRSSQSLVHSDGNTYLYWYLQKPGQSPKLLIYKVSNRFSGVPDRFSGSGSGTDFTFKISRVGAEDLGVYFCSQSTHVPWTFGGGTKLEII
B7: anti-CD300LB antibody CD-12 (antibody, V domains shown)
VH: QIQLVQSGPELKKPGETVKISCKASGYTFTDYSMHWVRQAPGKGLKWMAWINTETGEATHADDFKGRFDFSLDTSASTAYLQIKNLKNEDTGIYFCVCYGSSYGMDYWGQGTSVTVSS
VL: DIVLTQSPASLPVSLGQRATISCRASKSVRTSGASYMHWYQQKPGQPPKLLIYLASNLKSGVPTRFSGSGSGTDFTLNIHPVEEEDAATYYCQHNREVPPTFGGGTKLEIK
B8: anti-CD300LB antibody CD-17 (antibody, V domains shown)
VH: QIQLVQSGPELKKPGETVKISCKASGYTLTDYSMHWVKQAPGKGLKWMGWINTETGEPRYGDDFKGRFAFSLETSASSAYLQINNLKNDDTATYFCATYGRSYGMDFWGQGTSVTVSS
VL: B7 VL with P12A, R30S, T31P, A34H, T64A, E85G, V98L, T106S
B9: anti-CD300LB antibody CD-15 (antibody, V domains shown)
VH: QIQLVQSGPELKKPGETVKISCQVSGYTFTDYSMHWLKQAPGKGLKWMAWINTETGESTYTDEFKGRFVFSLETSVRTAYLKINNLKNEDTATYFCGTYGSSYGMAYWGQGTSVTVSS
VL: B7 VL with R30S, A34S, M37L, N57K, K59E, T64A, S67R
B10: anti-CD300LB antibody CD-18 (antibody, V domains shown)
VH: DVQLQESGPDLVKPSQSLSLTCTVTGYSITSGYSWHWIRQFPDNKLEWMGYILSRGDTNFNPSLKSRISITRSTSNNQFFLHFNSVTTEDTATYYCARDFFDYWGQGTTLTVSS
VL: DVLMTQTPLSLPVSLGDQASISCRSSQSIVHSNGNTYLEWYLQKPGQSPKLLIYKVSDRFSGVPDRFSGSGSGTDFTLKISRVEAEDLGVYFCFQGSHVPYTFGGGTKLEIK
B11: anti-CD300LB antibody CD-11 (antibody, V domains shown)
VH: QIQLVQSGPEVKKPGETVKISCKASGYTLTDYSMHWVMQTPGTGLKWMAWMNTETGEPTYADDFKGRFAFSLETSAGTAYLQIDNLKNEDTATYFCATYGKSYGMKYWGQGTSVTVSS
VL: DIVLTQSPPSLAVSLGQRATISCRATKSVSPYLHWYQQTPGQPPKLLIYLASNLDSGVPARFSGSGSGTDFTLNIHPVEEEDAATYYCQHNKELPPTFGGGTRLEIK

Each binder was assayed against T1, human CD300LB on primary human … (assay: flow cytometry, primary human macrophages donor 1277, 10 ug/mL antibody, isotype control subtracted).
Description: Human monocytes from various donors were isolated from whole blood using RosetteSep Human Monocyte Enrichment Cocktail (Stemcell technologies) and Ficoll centrifugation per manufacturer protocols. After lysing red blood cells with ACK lysing buffer, monocytes were resuspended in complete media (RPMI, 10% FBS, Pen/Strep, L-glutamine, HEPES, non-essential amino acid, Sodium pyruvate). To obtain macrophages from these isolated monocytes, 100 ng/ml human M-CSF and 8% v/v human serum were added to the cells for 5-7 days. Cells were counted on the day of the experiment and plated at 100,000 cells per well in a round-bottom 96 well plate. Cells were incubated with TruStain Fc block and 10 μg/mL antibody for 1 hour on ice before washing with 250 μL ice cold PBS twice. Cells were then incubated with the appropriate APC-conjugated secondary antibodies for 20 minutes in the dark on ice. Finally, cells were washed twice with ice cold FACS buffer and then resuspended in 100 μL FACS buffer containing 1% propidium iodide. Samples were immediately analyzed using a BD FACSCanto flow cytometer. The gMFI was calculated using FlowJo software minus the gMFI of the appropriate isotype control.
B1 showed a gMFI of 3790 gMFI. B2 showed a gMFI of 24000 gMFI. Work on B3 yielded a gMFI of 68600 gMFI.

Target: T2, human CD300D-Fc
Test: SPR (Carterra LSA), antibody immobilised
How it was run: (§1)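 Mouse anti-CD300LB IgG1 antibodies were amine-coupled in a 96-spot array on an HC200M chip; Fc-fused CD300 ectodomains (human on hIgG1-Fc) flowed over as analytes at 300 nM or 600 nM in HBS-TE with 0.5 mg/ml BSA, injected in series without regeneration, with kinetics fitted by high-throughput analysis.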
B4: no binding (tested: 300 nM or 600 nM). B5: no binding (tested: 300 nM or 600 nM). B6: no binding (tested: 300 nM or 600 nM). B3: no binding (tested: 300 nM or 600 nM).

Target: T3, human CD300E-Fc
Test: SPR (Carterra LSA), antibody immobilised
How it was run: as §1
B4: no binding (tested: 300 nM or 600 nM). B5: no binding (tested: 300 nM or 600 nM). B6: no binding (tested: 300 nM or 600 nM). B3: no binding (tested: 300 nM or 600 nM).

Target: T4, murine CD300D-Fc
Test: SPR (Carterra LSA), antibody immobilised
How it was run: as §1
B7: no binding (tested: 300 nM or 600 nM). B8: no binding (tested: 300 nM or 600 nM). B9: no binding (tested: 300 nM or 600 nM). B10: no binding (tested: 300 nM or 600 nM). B11: no binding (tested: 300 nM or 600 nM).

Source: patent publication US20240254227A1 (Alector, published 2024)
